Experimental data from US7067619 (LA JOLLA CANCER RESEARCH FOUNDATION, dated 2006).
Ends that are not written are not given here.

Assays:
[1] = target: T1, αvβ3 integrin isolated from human placental extract (human, UniProt P06756 31-1048; P05106 27-788); experiment: phage panning on coated integrin
T1 construct: isolated on GRGDSPK-Sepharose; said to be primarily αvβ3
Method: (§1) In the first panning, the integrins were coated at 5 µg per well, and the library pool was incubated for 4 hours at 25° C. in TBS buffer containing 1% bovine serum albumin and 1 mM MnCl_2 (α_5β_1, α_vβ_3) 1 mM MgCl_2 ($\alphaIIb\beta_3$) or 1 mM CaCl_2 (α_vβ_5).

[2] = target: αvβ5 integrin isolated from human placental extract (human, UniProt P06756 31-1048; P18084 24-799); experiment: phage panning on coated integrin
Chain of αvβ5 integrin isolated from human placental extract (P06756 31-1048, chain 1 of 2): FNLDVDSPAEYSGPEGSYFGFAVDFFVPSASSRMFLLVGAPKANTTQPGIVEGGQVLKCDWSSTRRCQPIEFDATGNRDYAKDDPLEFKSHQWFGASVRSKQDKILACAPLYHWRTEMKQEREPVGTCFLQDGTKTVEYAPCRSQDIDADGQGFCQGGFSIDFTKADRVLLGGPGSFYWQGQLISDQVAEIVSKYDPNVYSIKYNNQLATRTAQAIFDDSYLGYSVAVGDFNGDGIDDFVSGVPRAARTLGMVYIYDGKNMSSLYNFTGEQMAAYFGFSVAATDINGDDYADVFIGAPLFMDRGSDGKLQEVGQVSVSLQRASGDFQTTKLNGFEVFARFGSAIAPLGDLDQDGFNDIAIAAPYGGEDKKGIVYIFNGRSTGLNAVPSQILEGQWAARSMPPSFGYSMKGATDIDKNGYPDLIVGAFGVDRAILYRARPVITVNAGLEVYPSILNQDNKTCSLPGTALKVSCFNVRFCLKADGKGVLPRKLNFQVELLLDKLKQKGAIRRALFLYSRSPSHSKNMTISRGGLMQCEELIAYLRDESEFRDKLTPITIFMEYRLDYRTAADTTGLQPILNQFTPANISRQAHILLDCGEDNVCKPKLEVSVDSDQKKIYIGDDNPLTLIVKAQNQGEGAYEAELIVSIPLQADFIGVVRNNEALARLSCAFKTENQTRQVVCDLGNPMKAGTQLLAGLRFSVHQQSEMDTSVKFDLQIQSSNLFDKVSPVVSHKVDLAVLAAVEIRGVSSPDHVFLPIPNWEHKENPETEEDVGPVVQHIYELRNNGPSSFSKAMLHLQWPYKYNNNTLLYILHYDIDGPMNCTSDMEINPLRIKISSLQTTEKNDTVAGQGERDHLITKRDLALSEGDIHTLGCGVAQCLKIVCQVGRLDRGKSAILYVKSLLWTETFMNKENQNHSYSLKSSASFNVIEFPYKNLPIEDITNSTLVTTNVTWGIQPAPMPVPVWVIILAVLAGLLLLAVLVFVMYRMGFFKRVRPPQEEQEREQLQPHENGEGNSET
Chain of αvβ5 integrin isolated from human placental extract (P18084 24-799, chain 2 of 2): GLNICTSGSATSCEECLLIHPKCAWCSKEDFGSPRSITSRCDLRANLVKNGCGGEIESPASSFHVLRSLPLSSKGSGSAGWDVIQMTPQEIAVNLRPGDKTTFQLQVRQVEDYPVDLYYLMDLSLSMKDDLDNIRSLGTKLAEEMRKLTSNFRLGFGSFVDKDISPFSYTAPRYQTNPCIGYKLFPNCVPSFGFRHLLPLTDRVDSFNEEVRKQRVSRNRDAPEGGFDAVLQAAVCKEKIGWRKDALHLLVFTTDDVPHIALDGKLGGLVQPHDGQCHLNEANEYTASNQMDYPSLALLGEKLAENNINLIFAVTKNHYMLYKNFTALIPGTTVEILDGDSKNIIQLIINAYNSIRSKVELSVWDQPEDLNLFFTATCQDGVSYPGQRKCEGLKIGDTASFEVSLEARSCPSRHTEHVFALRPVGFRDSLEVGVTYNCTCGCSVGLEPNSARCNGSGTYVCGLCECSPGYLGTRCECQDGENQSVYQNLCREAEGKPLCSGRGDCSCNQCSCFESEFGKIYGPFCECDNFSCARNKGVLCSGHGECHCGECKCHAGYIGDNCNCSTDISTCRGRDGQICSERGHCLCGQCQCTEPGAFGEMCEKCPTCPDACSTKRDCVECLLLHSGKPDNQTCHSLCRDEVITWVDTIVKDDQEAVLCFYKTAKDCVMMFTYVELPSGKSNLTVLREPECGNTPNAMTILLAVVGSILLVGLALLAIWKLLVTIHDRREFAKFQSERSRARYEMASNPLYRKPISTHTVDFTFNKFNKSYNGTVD
Method: as §1

T1 sequence (P06756 31-1048, chain 1 of 2): as the sequence (P06756 31-1048, chain 1 of 2) above
T1 sequence (P05106 27-788, chain 2 of 2): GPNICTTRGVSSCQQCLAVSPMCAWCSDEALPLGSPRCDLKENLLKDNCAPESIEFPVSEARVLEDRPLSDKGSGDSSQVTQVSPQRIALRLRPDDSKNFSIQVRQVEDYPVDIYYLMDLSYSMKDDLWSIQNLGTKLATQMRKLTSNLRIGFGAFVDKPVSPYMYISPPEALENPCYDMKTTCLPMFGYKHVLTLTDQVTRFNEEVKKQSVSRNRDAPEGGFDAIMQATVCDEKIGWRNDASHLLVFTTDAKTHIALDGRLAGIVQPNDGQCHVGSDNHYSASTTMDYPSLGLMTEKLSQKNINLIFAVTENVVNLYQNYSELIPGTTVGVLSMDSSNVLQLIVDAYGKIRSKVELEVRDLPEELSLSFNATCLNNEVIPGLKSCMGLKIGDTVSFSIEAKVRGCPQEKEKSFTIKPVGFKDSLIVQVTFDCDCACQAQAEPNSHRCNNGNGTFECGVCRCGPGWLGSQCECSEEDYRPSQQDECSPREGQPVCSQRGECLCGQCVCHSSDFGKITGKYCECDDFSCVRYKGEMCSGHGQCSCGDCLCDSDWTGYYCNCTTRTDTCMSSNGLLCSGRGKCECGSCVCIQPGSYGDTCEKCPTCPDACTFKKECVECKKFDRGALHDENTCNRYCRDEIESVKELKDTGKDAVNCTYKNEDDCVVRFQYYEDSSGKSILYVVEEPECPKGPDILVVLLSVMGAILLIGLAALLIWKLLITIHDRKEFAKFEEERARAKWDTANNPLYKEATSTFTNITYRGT

Binder: CWRGDTPC (on fuse 5 phage, fused to pIII) [CWRGDTPC phage]
- binding result [1]: binds

Binder: CWRGDRAC (on fuse 5 phage, fused to pIII) [CWRGDRAC phage]
- binding result [1]: binds

Binder: CLRGDRVC (on fuse 5 phage, fused to pIII) [CLRGDRVC phage]
- binding result [1]: binds

Binder: CSRGDGRC (on fuse 5 phage, fused to pIII) [CSRGDGRC phage]
- binding result [1]: binds

Binder: CRGDSLRC (on fuse 5 phage, fused to pIII) [CRGDSLRC phage]
- binding result [1]: binds

Binder: CRGDGRNC (on fuse 5 phage, fused to pIII) [CRGDGRNC phage]
- binding result [1]: binds

Binder: CTTRGDSFC (on fuse 5 phage, fused to pIII) [CTTRGDSFC phage]
- binding result [1]: binds

Binder: CTTRSDSFC (on fuse 5 phage, fused to pIII) [CTTRSDSFC phage]
- binding result [1]: binds

Binder: CRVRGDSWC (on fuse 5 phage, fused to pIII) [CRVRGDSWC phage]
- binding result [1]: binds

Binder: CLRRGDSGC (on fuse 5 phage, fused to pIII) [CLRRGDSGC phage]
- binding result [1]: binds

Binder: CISRGDTFC (on fuse 5 phage, fused to pIII) [CISRGDTFC phage (αvβ3 selection)]
- binding result [1]: binds

Binder: CPSRGDALC (on fuse 5 phage, fused to pIII) [CPSRGDALC phage]
- binding result [1]: binds

Binder: CAGRGDALC (on fuse 5 phage, fused to pIII) [CAGRGDALC phage]
- binding result [1]: binds

Binder: CSPRGDAGC (on fuse 5 phage, fused to pIII) [CSPRGDAGC phage]
- binding result [1]: binds

Binder: CTRRGDATC (on fuse 5 phage, fused to pIII) [CTRRGDATC phage]
- binding result [1]: binds

Binder: CVRRGDAFC (on fuse 5 phage, fused to pIII) [CVRRGDAFC phage]
- binding result [1]: binds

Binder: CLSRGDVVC (on fuse 5 phage, fused to pIII) [CLSRGDVVC phage]
- binding result [1]: binds

Binder: CNARGDGFC (on fuse 5 phage, fused to pIII) [CNARGDGFC phage]
- binding result [1]: binds

Binder: CVTRGDHFC (on fuse 5 phage, fused to pIII) [CVTRGDHFC phage]
- binding result [1]: binds

Binder: CEVRGDRIC (on fuse 5 phage, fused to pIII) [CEVRGDRIC phage]
- binding result [1]: binds

Binder: CNIRGDKIC (on fuse 5 phage, fused to pIII) [CNIRGDKIC phage]
- binding result [1]: binds

Binder: CNARGDKLC (on fuse 5 phage, fused to pIII) [CNARGDKLC phage]
- binding result [1]: binds

Binder: CPRGDSTLC (on fuse 5 phage, fused to pIII) [CPRGDSTLC phage]
- binding result [1]: binds

Binder: CTRGDSIFC (on fuse 5 phage, fused to pIII) [CTRGDSIFC phage]
- binding result [1]: binds

Binder: CTRGDSLDC (on fuse 5 phage, fused to pIII) [CTRGDSLDC phage]
- binding result [1]: binds

Binder: CGRGDSHHC (on fuse 5 phage, fused to pIII) [CGRGDSHHC phage]
- binding result [1]: binds

Binder: CDRGDSQSC (on fuse 5 phage, fused to pIII) [CDRGDSQSC phage]
- binding result [1]: binds

Binder: CSRGDTYLC (on fuse 5 phage, fused to pIII) [CSRGDTYLC phage]
- binding result [1]: binds

Binder: CLRGDIANC (on fuse 5 phage, fused to pIII) [CLRGDIANC phage]
- binding result [1]: binds

Binder: CGRGDLIHC (on fuse 5 phage, fused to pIII) [CGRGDLIHC phage]
- binding result [1]: binds

Binder: CSRGDGAIC (on fuse 5 phage, fused to pIII) [CSRGDGAIC phage]
- binding result [1]: binds

Binder: CFRGDDRKC (on fuse 5 phage, fused to pIII) [CFRGDDRKC phage]
- binding result [1]: binds

Binder: CRGDSFVGC (on fuse 5 phage, fused to pIII) [CRGDSFVGC phage]
- binding result [1]: binds

Binder: CRGDSHLQC (on fuse 5 phage, fused to pIII) [CRGDSHLQC phage]
- binding result [1]: binds

Binder: CRGDNTFGC (on fuse 5 phage, fused to pIII) [CRGDNTFGC phage]
- binding result [1]: binds

Binder: CRGDTVYAC (on fuse 5 phage, fused to pIII) [CRGDTVYAC phage]
- binding result [1]: binds

Binder: CRGDHGTLC (on fuse 5 phage, fused to pIII) [CRGDHGTLC phage]
- binding result [1]: binds

Binder: CRGDAWPGC (on fuse 5 phage, fused to pIII) [CRGDAWPGC phage]
- binding result [1]: binds

Binder: CRGDLAWVC (on fuse 5 phage, fused to pIII) [CRGDLAWVC phage]
- binding result [1]: binds

Binder: CRGDGIRFC (on fuse 5 phage, fused to pIII) [CRGDGIRFC phage]
- binding result [1]: binds

Binder: CRGDKGWNC (on fuse 5 phage, fused to pIII) [CRGDKGWNC phage]
- binding result [1]: binds

Binder: CARRLDAPC (on fuse 5 phage, fused to pIII) [CARRLDAPC phage]
- binding result [1]: binds

Binder: CKTPGRLDC (on fuse 5 phage, fused to pIII) [CKTPGRLDC phage]
- binding result [1]: binds

Binder: CWSISPYFC (on fuse 5 phage, fused to pIII) [CWSISPYFC phage]
- binding result [1]: binds

Binder: CPDLLAQSC (on fuse 5 phage, fused to pIII) [CPDLLAQSC phage]
- binding result [1]: binds

Binder: CLVLPSTGC (on fuse 5 phage, fused to pIII) [CLVLPSTGC phage]
- binding result [1]: binds

Binder: CYSLGFLVC (on fuse 5 phage, fused to pIII) [CYSLGFLVC phage]
- binding result [1]: binds

Binder: CQARGDRPRC (on fuse 5 phage, fused to pIII) [CQARGDRPRC phage]
- binding result [1]: binds

Binder: CNRRGDNWGC (on fuse 5 phage, fused to pIII) [CNRRGDNWGC phage]
- binding result [1]: binds

Binder: CRGDVFLC (on fuse 5 phage, fused to pIII) [CRGDVFLC phage]
- binding result [2]: binds

Binder: CWTRGDSFC (on fuse 5 phage, fused to pIII) [CWTRGDSFC phage]
- binding result [2]: binds

Binder: CEGRGDSFC (on fuse 5 phage, fused to pIII) [CEGRGDSFC phage]
- binding result [2]: binds

Binder: CEPRGDSFC (on fuse 5 phage, fused to pIII) [CEPRGDSFC phage]
- binding result [2]: binds

Binder: CYARGDSFC (on fuse 5 phage, fused to pIII) [CYARGDSFC phage]
- binding result [2]: binds

Binder: CELRGDSAC (on fuse 5 phage, fused to pIII) [CELRGDSAC phage]
- binding result [2]: binds

Binder: CLVRGDSLC (on fuse 5 phage, fused to pIII) [CLVRGDSLC phage]
- binding result [2]: binds

Binder: CHTRGDTFC (on fuse 5 phage, fused to pIII) [CHTRGDTFC phage]
- binding result [2]: binds

Binder: CISRGDTFC (on fuse 5 phage, fused to pIII) [CISRGDTFC phage (αvβ5 selection)]
- binding result [2]: binds

Binder: CVVRGDTFC (on fuse 5 phage, fused to pIII) [CVVRGDTFC phage]
- binding result [2]: binds

Binder: CEMRGDTFC (on fuse 5 phage, fused to pIII) [CEMRGDTFC phage]
- binding result [2]: binds

Binder: CDLRGDTYC (on fuse 5 phage, fused to pIII) [CDLRGDTYC phage]
- binding result [2]: binds

Binder: CVTRGDNFC (on fuse 5 phage, fused to pIII) [CVTRGDNFC phage]
- binding result [2]: binds

Binder: CVLRGDNFC (on fuse 5 phage, fused to pIII) [CVLRGDNFC phage]
- binding result [2]: binds

Binder: CVRRGDVFC (on fuse 5 phage, fused to pIII) [CVRRGDVFC phage]
- binding result [2]: binds

Binder: CGRGDTPTC (on fuse 5 phage, fused to pIII) [CGRGDTPTC phage]
- binding result [2]: binds

Binder: CRGDTYLIC (on fuse 5 phage, fused to pIII) [CRGDTYLIC phage]
- binding result [2]: binds

B1: CDCRGDCLC phage (peptide)
peptide: CDCRGDCLC
modifications: not fully specified (bridges); also: two disulfide bonds, pairing not given here
notes: on fuse 5 phage, fused to pIII
- binding result [2]: binds

B2: CLCRGDCIC phage (peptide)
peptide: CLCRGDCIC
modifications: not fully specified (bridges); also: two disulfide bonds, pairing not given here
notes: as for B1
- binding result [2]: binds

Binder: CRGDCCQSC (on fuse 5 phage, fused to pIII) [CRGDCCQSC phage]
- binding result [2]: binds

Binder: CLHPNVRSC (on fuse 5 phage, fused to pIII) [CLHPNVRSC phage]
- binding result [2]: binds
